Assay results: US20210347873A1 (SHANGHAI PHARMAEXPLORER, published 2021)

B1: c67A2E1D10 (antibody, human IgG1, V domains shown)
VH: EVQLQQSGAELVKPGASVKLSCTASGFNIKNYYMHWVKQRTEEGLEWIGRIDPEDGETKYAPKFQAKATITADTSSNTAYLQLSSLTSEDTAVYFCARKGYYGNYGAWFAYWGQGTLVTVSA
VL: DIQMTQSPASLSVSVGETVTITCRASEDLYSNLAWYQQKQGKSPQLLVYAATFLADGVPSRFSGSGSGTQYSLKINSLQSEDFGNYYCQHFWGTPPTFGGGTKLEIK
notes: also called BLyS chimeric antibody
B2: 67A2E1D10 (antibody, V domains shown)
VH: EVQLQQSGAELVKPGASVKLSCTASGFNIKNYYMHWVKQRTEEGLEWIGRIDPEDGETKYAPKFQAKATITADTSSNTAYLQLSSLTSEDTAVYFCARKGYYGNYGAWFAYWGQGTLVTVSA
VL: DIQMTQSPASLSVSVGETVTITCRASEDLYSNLAWYQQKQGKSPQLLVYAATFLADGVPSRFSGSGSGTQYSLKINSLQSEDFGNYYCQHFWGTPPTFGGGTKLEIK
notes: Mouse hybridoma antibody purified on Protein G
B3: 35E6F7C3 (antibody, V domains shown)
VH: EVQLQQSGAELVKPGASVKLSCTAAGFNIQDTYIHWVKQRPEQGLEWIGRIDPANANTVYDPKFQGKATITADTSSNTAYLQVSSLTSEDTAVYYCASPVITAGFAYWGQGTLVTVSA
VL: QIVLTQSPAIMSASPGEKVTMTCGASSSVNYVHWYQQKSGTSPKRWIYDTSKLASGVPARFSGSGSGTSYSLTISSMEAEDAATYYCQQWTRSPLTFGAGTKVELK
notes: as for B2
B4: 111D10D6G3 (antibody, V domains shown)
VH: QVQLQQPGAELVKPGASVKMSCKASGYTFTRHWITWVKQRPGQGLEWIGDIFPGSGSINYNEKFKSEATLTVEKSSSTAYMQLSSLTSEDSAVYYCARGDVDVWGTGTTVTVSS
VL: DIQMTQSPSSLSASLGERVSLTCRASQEIRGYLSWLQQKPNGTIKRLIYAASTLDSGVPKRFSATRSGSDFSLTISSLESEDFADYYCLQYASYPFTFGSGTKLEIK
notes: as for B2
B5: 97A3C2H4 (antibody, V domains shown)
VH: EVKLVESGGGLVQPGGSLKLSCAASGFTFSTYTMSWVRQTPEKRLEWVAYISYGGGSTSYPDTVKGRFTISRDNAKNTLYLQMSSLKSEDTAIYYCTRHVTVVENSMDYWGQGTSVTVSS
VL: DILLTQSPDILSVSPGERVSFSCRASQSIGTSIHWYQQRTNGSPRLLIKYVSESFSGTPSRFSGSGSGTAFTLTINSVESEDIADYYCQQTHSWPWTFGGGTKLEIK
notes: as for B2
B6: c93C6F10D3 (antibody, human IgG1, V domains shown)
VH: EVQLVESGGGLVTPGGSLKLSCVASGFAFSTYGMSWVRQTPERRLEWVAYISGGGGSIYYPDSVKGRFTISRDNAKNILYLQMSSLKSEDTAMYHCTRHPDLLLRYDYALDHWGQGTSVTVSS
VL: DIQMTQSPASLSASVGETVTITCRASENIHIYLAWYQQKQGKSPQLLVYNGKTLADGVPSRFSGSGSGTQYSLKINTLQPEDFGNYYCQHFWNSTWTFGGGTKLEIK
notes: as for B1
B7: 93C6F10D3 (antibody, V domains shown)
VH: EVQLVESGGGLVTPGGSLKLSCVASGFAFSTYGMSWVRQTPERRLEWVAYISGGGGSIYYPDSVKGRFTISRDNAKNILYLQMSSLKSEDTAMYHCTRHPDLLLRYDYALDHWGQGTSVTVSS
VL: DIQMTQSPASLSASVGETVTITCRASENIHIYLAWYQQKQGKSPQLLVYNGKTLADGVPSRFSGSGSGTQYSLKINTLQPEDFGNYYCQHFWNSTWTFGGGTKLEIK
notes: as for B2
B8: 78C11D2D12 (antibody, V domains shown)
VH: QVQLQQSGAELVRPGTSVKISCKASGYAFTNYWLGWVKQRPGHGLEWIGDIYPGSGNTYYNEKFKGKATLTADKSSSTAYMQLSSLTSEDSAVFFCAAYLYAMDYWGQGTSVTVSS
VL: QIVLTQSPAIMSASPGEKVTITCSASSSVSYMHWFQQKPGTSPKLWIYSASNLASGVPARFSGSGSGTSYSLTISRMEAEDAATYYCQQRGSYPFTFGSGTKLEIK
notes: as for B2
B9: 8E7D9C7F5 (antibody, V domains shown)
VH: QVQLQQSGVELARPGASVKLSCKASGYTFTSYGISWVKQRTGQALEWIGEIYPRSGNTYYNEKFKGKATLTADKSSSTAYMELRSLTSEDSAVYFCARSGPITTLVATDYGMDYWGQGTSVTVSS
VL: DIVLTQSPASLAVSLGQRATISCRASKSVSTSSYSYMHWYQQKPGQPPKLLIKFASNLESGVPARFSGSGSGTDFTLNIHPVEEEDAATYYCQHSREFPYTFGGGTKLEIK
notes: as for B2
B10: L1D12 (antibody, V domains shown)
VH: QVQLVQSGGGLVQPGGSLRLSCAASGFTVSSNYMSWVRQAPGKGLEWVSVIYSGGSTYYADSVKGRFTISRDNSKNTLYLQMNSLRAEDTAVYYCARGFHDILTGYGMDVWGQGTTVTVSS
VL: SSELTQDPAVSVALGQTVRITCQGDSLRNYYAGWYQQKPGQAPVLVIYGKNNRPSGIPDRFSGSSSGNTASLTITGTQAEDEADYYCSSRDNSGTHLVEFGGGTKLTVL

Key:
biotinylated hBLyS-ECD [1] = molecular target: T1, biotinylated hBLyS-ECD (human, UniProt Q9Y275 134-285, biotinylated with Biotin-X-X-NHS (molar ratio 7:1), sites not stated); experiment: ELISA: biotinylated hBLyS-ECD captured on streptavidin, antibody titrated, HRP secondary antibody
T1 construct: The hBLyS-ECD of Embodiment 1 after biotinylation (Embodiment 2); also called biotinylated immunogen; BLyS protein; not shown: His tag of the pCPC vector

biotinylated hBLyS-ECD [2] = molecular target: T2, biotinylated hBLyS-ECD (human, UniProt Q9Y275 134-285, biotinylated with Biotin-X-X-NHS (molar ratio 7:1); sites not stated); experiment: competition ELISA; competitor 93C6F10D3
T2 construct: also called biotinylated immunogen; biotinylated hBLvS-ECD
Description: (§1) The purified human BLyS antibody and hybridoma antibody were subjected to competitive enzyme-linked immunosorbent assay and the epitopes binding by different antibodies were analyzed.
(§2) Purified BLyS antibody was first diluted to a final concentration of 1.0 μg/mL with PBS, then aliquoted into a 96-well ELISA plate at 50 μL per well, and the plate was subsequently sealed with plastic film and incubated at 4° C. overnight. On the next day the plate was rinsed four times with the plate washing buffer [PBS buffer containing 0.05% (v/v) Tween20] and mixed with blocking solution [PBS buffer containing 0.05% (v/v) Tween20 and 1% (w/w) BSA], and then blocked at 37° C. for 1 hour. The blocking solution was removed, and the competitive antibody and IgG control were diluted to a final concentration of 40 μg/mL with PBS and then aliquoted into the 96-well ELISA plate at 50 μL per well. The biotinylated hBLyS-ECD was then diluted with PBS to a final concentration of 2 ng/mL and pipetted into the 96-well ELISA plate at 50 μL per well. The final concentration of competitive antibody and hBLyS-ECD was 20 μg/mL and 1 ng/mL, respectively. After incubation at 37° C. for 1 hour, the plate was rinsed four times with the plate washing buffer [PBS buffer containing 0.05% (v/v) Tween20]. 100 μL per well of HRP-labeled (horseradish peroxidase) streptavidin (purchased from Sigma) was added into the plate and the plate was incubated at 37° C. for 1 hour. The plate was then washed four times with the plate washing buffer [PBS buffer containing 0.05% (v/v) Tween20]. 100 μL of TMB substrate was aliquoted into each well and after incubation at room temperature for 5 minutes, 100 μL of stop solution (1.0 N HCl) was aliquoted into each well. A₄₅₀ₙₘ values were read by an ELISA plate reader (SpectraMax M5e, purchased from Molecular Device) and the results were shown in Tables 18A-18B. […] The data shown in the table is the inhibitory rate (%) of the binding level of the original antibody to hBLyS-ECD after addition of the competitive antibody.

biotinylated hBLyS-ECD [3] = molecular target: T2, biotinylated hBLyS-ECD; experiment: competition ELISA; competitor 78C11D2D12
Description: as §1, §2

biotinylated hBLyS-ECD [4] = molecular target: T2, biotinylated hBLyS-ECD; experiment: competition ELISA; competitor 111D10D6G3
Description: as §1, §2

biotinylated hBLyS-ECD [5] = molecular target: T2, biotinylated hBLyS-ECD; experiment: competition ELISA; competitor 8E7D9C7F5
Description: as §1, §2

biotinylated hBLyS-ECD [6] = molecular target: T2, biotinylated hBLyS-ECD; experiment: competition ELISA; competitor 35E6F7C3
Description: as §1, §2

biotinylated hBLyS-ECD [7] = molecular target: T2, biotinylated hBLyS-ECD; experiment: competition ELISA; competitor 97A3C2H4
Description: as §1, §2

biotinylated hBLyS-ECD [8] = molecular target: T2, biotinylated hBLyS-ECD; experiment: competition ELISA; competitor 67A2E1D10
Description: as §1, §2

[9] = molecular target: extracellular domain of human BLyS protein (hBLyS-ECD), His-tagged, Ala134-Leu285 (human, UniProt Q9Y275 134-285); experiment: cell-based or functional assay
Chain of extracellular domain of human BLyS protein (hBLyS-ECD), His-tagged, Ala134-Leu285 (Q9Y275 134-285): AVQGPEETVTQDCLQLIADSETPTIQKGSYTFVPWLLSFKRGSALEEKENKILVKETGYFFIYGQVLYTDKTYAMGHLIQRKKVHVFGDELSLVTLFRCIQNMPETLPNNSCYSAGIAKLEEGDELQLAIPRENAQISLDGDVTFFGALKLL

T2 sequence (Q9Y275 134-285): as above
T1 sequence (Q9Y275 134-285): as above

| Binder | EC50 (read off the curve) (biotinylated hBLyS-ECD [1]) | inhibitory rate (%) (biotinylated hBLyS-ECD [2]) | inhibitory rate (%) (biotinylated hBLyS-ECD [3]) | inhibitory rate (%) (biotinylated hBLyS-ECD [4]) | inhibitory rate (%) (biotinylated hBLyS-ECD [5]) | inhibitory rate (%) (biotinylated hBLyS-ECD [6]) | inhibitory rate (%) (biotinylated hBLyS-ECD [7]) | inhibitory rate (%) (biotinylated hBLyS-ECD [8]) | Proportion of B lymphocytes in splenocytes (%), in vivo in mice [9] |
| --- | --- | --- | --- | --- | --- | --- | --- | --- | --- |
| B1 | ~0.1 nM | – | – | – | – | – | – | – | – |
| B2 | – | 44% | 80% | 86% | 63% | 18% | 75% | 93% | – |
| B3 | – | 33% | 36% | 38% | 27% | 91% | 26% | 33% | – |
| B4 | – | 41% | 86% | 95% | 27% | 22% | 26% | 96% | – |
| B5 | – | 93% | 96% | 93% | 93% | 55% | 89% | 96% | – |
| B6 | ~0.07 nM | – | – | – | – | – | – | – | – |
| B7 | – | 79% | 92% | 95% | 94% | 42% | 90% | 97% | – |
| B8 | – | 58% | 88% | 95% | 37% | 29% | 46% | 95% | – |
| B9 | – | 85% | 94% | 96% | 92% | 40% | 89% | 96% | – |
| B10 | – | – | – | – | – | – | – | – | 26.8% |
